What was measured:
[1] = Light scattering of microdroplets with enzyme and PET nanoparticles; assay type: biochemical; conditions: 600 nM enzyme co-encapsulated with PET nanoparticles, versus buffer control
Method: (A) As described in FIG. 1, for the screening of metagenomic libraries for esterase activity isolated environmental DNA (eDNA) was cloned into plasmids. After the transformation of bacterial cells, single ones were co-encapsulated in microdroplets with lysis agent and the fluorescein dihexanoate substrate. After an off-chip incubation, the droplets were reinjected into the FADS sorting device and positive hits selected. After DNA recovery the re-screening and sequencing lead to a novel esterase showing promiscuous activity on PET. This enzyme was used to generate a sequence network together with known PETases. CI5En2 was identified in of the clusters as a novel PET hydrolase. This enzyme was subjected to a directed evolution campaign. Single bacterial cells were encapsulated in microdroplets together with lysis agent and PET nanoparticles serving as the substrate of the assay. Droplets were incubated in droplet chambers and reinjected into the sorting module. The SADS module relies on fiber optics integrated into a chip at a 90° angle. Schematic picture showing the main principle of the assay. […] The dielectrophoretic sorting of “positive” droplets is triggered when the measured value is within a user-defined threshold. (C) Histogram of the detected light scattering for co-encapsulated CI5En2 (600 nM) or a buffer control and PET nanoparticles. […]

[2] = Enzymatic degradation of PET (nanoparticles, film), HPLC of released TPA and MHET; assay type: biochemical
Text: (A) Sequence network of currently known PETases and a novel esterase metagenomic-derived, RR11O2. […] Grey nodes represent sequences extracted from MGnify and NCBI. Red node represents RR11O2, blue nodes represent known PETases, green and orange nodes represent reported cutinases and esterases showing PET activity, respectively, and light blue nodes represent described polyester degrading enzymes in the literature. To putatively characterise sequence clusters, the identification of PETases, cutinases, esterases and RR11O2 in the network helped to define the potential clusters. The cluster of RR11O2, CI5En2 and PETase are written in grey. (B) PET hydrolases catalyze the depolymerization of poly(ethylene terephthalate) (PET) to bis(2-hydroxyethyl) terephthalate (BHET), mono(2-hydroxyethyl)-terephthalic (MHET) or terephthalic acid (TPA) and ethylene glycol (EG). During characterizations via high-performance liquid chromatography (HPLC) MHET and TPA have been identified as main products. […] Absorbance at 250 nm was monitored.
(A) Enrichment of variants with higher activity compared to wildtype after sorting the ep-PCR library of CI5En2. […] Amount of the released monomers TPA and MHET was determined via HPLC and corresponding standard curves for TPA and MHET. […]
HPLC analysis of the products released after one week incubation at 30° C. using 6 μM pExp-bla-CI5En2-WT. Absorbance at 250 nm was monitored which detects released TPA and MHET.
To detect the release of TPA, MHET and BHET in the presence of various enzymes, aliquots were taken from reaction mixtures, turnover was stopped by addition of an equal volume of methanol containing 0.5% formic acid, centrifuged (16,100×g, 15 min) and analysed by HPLC (1260 Infinity II, Agilent; Nucleodur C18 analytical EC standard column (5 μm, 4×125 mm, Macherey-Nagel, Germany). As the mobile phase mixtures of buffer A (0.1% formic acid in distilled water) and buffer C (distilled water), as well as buffer D (acetonitrile) were used at a flow rate of 1 mL/min. Buffer A was kept at 20% for the whole run. […]

detected light scattering signal of droplets [1]: decreases over time
B1: CI5En2: novel PET hydrolase identified from a sequence network cluster; amino acid SEQ ID NO. 2 (protein)
chain: MADYAKGPAPTVALLTAPAGPYQTATYKIAAADAKAFNYGGATVHYPVAKAPGETFGVVVMVPGFLAFQAVYDWLVSRVASHGFVVVNMDTVGRGDYPDERAEQAAGALRHVVSLAQAGTAPYAPVADTSRRAVMGNSMGGGASLSAAVVDPTLKAVVALQPWHTTKSFTGVASPTLVVACEKDSIAPNKSHSDVFYNSLSAALPRAEIEMRGAGHLCATFLATAAQKTTMAKSSVAWLKRFLDNDMRYDAMVKGGIDQGEFSRFVV
modifications: C15EN2
activity against PET nanoparticles with different crystallinity ([2]; amorphous and crystalline PET NPs): showed activity
PET degrading activity compared with IsPETase and LCC ([2]; at 30° C.): activity comparable to IsPETase and higher than LCC

From patent US20260055398A1, “IMPROVED POLYMER DEGRADING ENZYMES” (CAMBRIDGE ENTERPRISE LIMITED, priority 2022, published 2026)
